# Measurements as given in article PMC12368060 (Communications Biology, 2025).
# Square brackets hold non-standard residues; d marks the D form. Ends that are not written are not given here. * marks the point of attachment. FITC = O=C1OC2(c3ccc(O)cc3Oc3cc(O)ccc32)c2ccc(NC(=S)*)cc21; pS = N[C@@H](COP(=O)(O)O)C(=O)O; Ahx = NCCCCCC(=O)O
# B1: FITC-Ahx OPTN LIR peptide 169-185 (WT) (peptide)
# peptide: {FITC-Ahx}-NSSGSSEDSFVEIRMAE
# B2: FITC-Ahx OPTN LIR peptide 169-185 (pS177 M183A) (peptide)
# peptide: {FITC-Ahx}-NSSGSSED[pS]FVEIRAAE
# B3: FITC-Ahx OPTN LIR peptide 169-185 (pS177 F178A) (peptide)
# peptide: {FITC-Ahx}-NSSGSSED[pS]AVEIRMAE
# B4: FITC-Ahx OPTN LIR peptide 169-185 (pS177) (peptide)
# peptide: {FITC-Ahx}-NSSGSSED[pS]FVEIRMAE
# B5: FITC-Ahx OPTN LIR peptide 169-185 (F178W) (peptide)
# peptide: {FITC-Ahx}-NSSGSSEDSWVEIRMAE
# B6: FITC-Ahx OPTN LIR peptide 169-185 (S177D) (peptide)
# peptide: {FITC-Ahx}-NSSGSSEDDFVEIRMAE
# B7: FITC-Ahx OPTN LIR peptide 169-185 (S177E) (peptide)
# peptide: {FITC-Ahx}-NSSGSSEDEFVEIRMAE
# B8: FITC-Ahx OPTN LIR peptide 169-185 (pS177 F178W) (peptide)
# peptide: {FITC-Ahx}-NSSGSSED[pS]WVEIRMAE
# Biological target: T1, GST-fused LC3B (UniProt Q9GZQ8 1-120)
# Assay: SPR
Binder,Kd,koff,kon
B1,63.5 µM,0.0351 s⁻¹,550 M⁻¹ s⁻¹
B2,36.7 µM,–,–
B3,> 100 µM,–,–
B4,21.2 µM,0.377 s⁻¹,17800 M⁻¹ s⁻¹

# Biological target: T1, GST-fused LC3B
# Assay: microfluidic diffusional sizing
Binder,Kd,stoichiometry N,fold increase in binding affinity against pS177 alone,fold increase in Kd against pS177 alone
B1,67.1 µM,1,–,–
B5,19.1 µM,1,–,–
B6,36.7 µM,1,–,–
B2,–,1,–,–
B7,40.2 µM,1,–,–
B8,–,1,7 fold,–
B3,–,–,–,7 fold
B4,14.9 µM,1,–,–
